Laboratory results reported in PMC8808184.
Each block holds one substance with its values, some of them ahead of it.

Columns and labels:
[1] = target: E1 domain of human APLP1, biotinylated (human) (UniProt P51693); assay: BLI; BLItz; biotinylated amyloid E1 domain ([…] nM) immobilised on streptavidin tips, CNTN FN1-FN3 in solution; room temperature; 150 mM NaCl, 10 mM Na-Hepes pH 7.5, 1 mg/ml BSA, 0.02% Tween-20; steady state KD from the maximal signal at equilibrium against concentration
[2] = target: E1 domain of human APLP2, biotinylated (human) (UniProt Q06481); assay: as above
[3] = target: E1 domain of human APLP1, biotinylated (human) (UniProt P51693); assay: BLI; BLItz; biotinylated amyloid E1 domain ([…] nM) immobilised on streptavidin tips, CNTN FN1-FN3 in solution; room temperature; 150 mM NaCl, 10 mM Na-Hepes pH 7.5, 1 mg/ml BSA, 0.02% Tween-20; average constants of the kinetic fit (the paper says koff attained or exceeded the accuracy limits of the instruments)
[4] = target: E1 domain of human APLP2, biotinylated (human) (UniProt Q06481); assay: as above
[5] = target: FN1–FN3 region of zebrafish CNTN4 (zebrafish); assay: BLI; biotinylated zebrafish CNTN4(FN1–FN3) immobilised on streptavidin sensors, E1 domains of zebrafish APPb or APLP2 in solution; Octet K2; KD from the signal at equilibrium
[6] = target: E1 domain of zebrafish APPb (zebrafish); assay: BLI; biotinylated E1 domain ([…] nM) immobilised on streptavidin tips, CNTN FN1–FN3 in solution; room temperature; 150 mM NaCl, 10 mM Na-Hepes pH 7.5, 1 mg/ml BSA, 0.02% Tween-20; BLItz or Octet K2; KD from the signal at equilibrium
[7] = target: FN1-FN3 domains of zebrafish CNTN4, biotinylated (zebrafish); assay: BLI; Octet K2; biotinylated FN1-FN3 domains of zebrafish CNTN4 immobilised on streptavidin sensors, E1 domains of zebrafish APPb or APLP2 in solution; average constants of the kinetic fit
[8] = target: FN1-FN3 domains of zebrafish CNTN4, biotinylated (zebrafish); assay: BLI; Octet K2; biotinylated FN1-FN3 domains of zebrafish CNTN4 immobilised on streptavidin sensors, E1 domains of zebrafish APPb or APLP2 in solution; steady state KD from the maximal signal at equilibrium against concentration
[9] = target: E1 domain of chicken APP (chicken); assay: BLI; biotinylated E1 domain ([…] nM) immobilised on streptavidin tips, CNTN FN1–FN3 in solution; room temperature; 150 mM NaCl, 10 mM Na-Hepes pH 7.5, 1 mg/ml BSA, 0.02% Tween-20; BLItz or Octet K2; KD from the signal at equilibrium
[10] = target: E1 domain of chicken APP, biotinylated (chicken); assay: BLI; BLItz; biotinylated amyloid E1 domain ([…] nM) immobilised on streptavidin tips, CNTN FN1-FN3 in solution; room temperature; 150 mM NaCl, 10 mM Na-Hepes pH 7.5, 1 mg/ml BSA, 0.02% Tween-20; steady state KD from the maximal signal at equilibrium against concentration
[11] = target: E1 domain of chicken APP, biotinylated (chicken); assay: BLI; BLItz; biotinylated amyloid E1 domain ([…] nM) immobilised on streptavidin tips, CNTN FN1-FN3 in solution; room temperature; 150 mM NaCl, 10 mM Na-Hepes pH 7.5, 1 mg/ml BSA, 0.02% Tween-20; average constants of the kinetic fit (the paper says koff attained or exceeded the accuracy limits of the instruments)
[12] = target: E1 domain of chicken APLP2, biotinylated (chicken); assay: as above
[13] = target: extracellular region of amyloid precursor protein (APP) fused to human IgG1 Fc or to FcYTS (UniProt P12023); assay: AlphaScreen or HTRF; ectodomain-FcYTS on Strep-Tactin donor beads and ectodomain-Fc on protein A acceptor beads; dialysed HEK293 conditioned media; both tag orientations; 1 h at room temperature; 150 mM NaCl, 20 mM Na-Hepes pH 7.5, 2 mM CaCl2, 2 mM MgCl2, BSA, Triton X-100, Tween-20; a pair counts with signal over background of at least two in each orientation
[14] = target: E1 domain of human APP, biotinylated (human) (UniProt P05067); assay: BLI; BLItz; biotinylated amyloid E1 domain ([…] nM) immobilised on streptavidin tips, CNTN FN1-FN3 in solution; room temperature; 150 mM NaCl, 10 mM Na-Hepes pH 7.5, 1 mg/ml BSA, 0.02% Tween-20; steady state KD from the maximal signal at equilibrium against concentration
[15] = target: E1 domain of human APP, biotinylated (human) (UniProt P05067); assay: BLI; BLItz; biotinylated amyloid E1 domain ([…] nM) immobilised on streptavidin tips, CNTN FN1-FN3 in solution; room temperature; 150 mM NaCl, 10 mM Na-Hepes pH 7.5, 1 mg/ml BSA, 0.02% Tween-20; average constants of the kinetic fit (the paper says koff attained or exceeded the accuracy limits of the instruments)
[16] = target: E1 domain of chicken APLP2 (chicken); assay: BLI; biotinylated E1 domain ([…] nM) immobilised on streptavidin tips, CNTN FN1–FN3 in solution; room temperature; 150 mM NaCl, 10 mM Na-Hepes pH 7.5, 1 mg/ml BSA, 0.02% Tween-20; BLItz or Octet K2; KD from the signal at equilibrium
[17] = target: E1 domain of mouse APP, biotinylated (mouse) (UniProt P12023); assay: BLI; BLItz; biotinylated amyloid E1 domain ([…] nM) immobilised on streptavidin tips, CNTN FN1-FN3 in solution; room temperature; 150 mM NaCl, 10 mM Na-Hepes pH 7.5, 1 mg/ml BSA, 0.02% Tween-20; average constants of the kinetic fit (the paper says koff attained or exceeded the accuracy limits of the instruments)
[18] = target: E1 domain of zebrafish APPb, biotinylated (zebrafish); assay: as above

Chain of E1 domain of human APLP2, biotinylated (human) (Q06481 46-205): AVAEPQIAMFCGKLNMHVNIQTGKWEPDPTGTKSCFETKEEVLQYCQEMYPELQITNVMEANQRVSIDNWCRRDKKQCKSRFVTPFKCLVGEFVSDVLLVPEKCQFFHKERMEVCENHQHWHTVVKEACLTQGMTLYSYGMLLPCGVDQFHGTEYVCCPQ
Chain of E1 domain of human APLP1, biotinylated (human) (P51693 50-212): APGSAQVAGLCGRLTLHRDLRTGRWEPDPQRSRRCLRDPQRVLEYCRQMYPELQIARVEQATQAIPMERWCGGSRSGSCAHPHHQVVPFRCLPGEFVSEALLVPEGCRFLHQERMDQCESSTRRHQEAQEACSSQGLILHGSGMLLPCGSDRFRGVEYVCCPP
Chain of FN1-FN3 region of mouse CNTN3 (Q07409 20-1002): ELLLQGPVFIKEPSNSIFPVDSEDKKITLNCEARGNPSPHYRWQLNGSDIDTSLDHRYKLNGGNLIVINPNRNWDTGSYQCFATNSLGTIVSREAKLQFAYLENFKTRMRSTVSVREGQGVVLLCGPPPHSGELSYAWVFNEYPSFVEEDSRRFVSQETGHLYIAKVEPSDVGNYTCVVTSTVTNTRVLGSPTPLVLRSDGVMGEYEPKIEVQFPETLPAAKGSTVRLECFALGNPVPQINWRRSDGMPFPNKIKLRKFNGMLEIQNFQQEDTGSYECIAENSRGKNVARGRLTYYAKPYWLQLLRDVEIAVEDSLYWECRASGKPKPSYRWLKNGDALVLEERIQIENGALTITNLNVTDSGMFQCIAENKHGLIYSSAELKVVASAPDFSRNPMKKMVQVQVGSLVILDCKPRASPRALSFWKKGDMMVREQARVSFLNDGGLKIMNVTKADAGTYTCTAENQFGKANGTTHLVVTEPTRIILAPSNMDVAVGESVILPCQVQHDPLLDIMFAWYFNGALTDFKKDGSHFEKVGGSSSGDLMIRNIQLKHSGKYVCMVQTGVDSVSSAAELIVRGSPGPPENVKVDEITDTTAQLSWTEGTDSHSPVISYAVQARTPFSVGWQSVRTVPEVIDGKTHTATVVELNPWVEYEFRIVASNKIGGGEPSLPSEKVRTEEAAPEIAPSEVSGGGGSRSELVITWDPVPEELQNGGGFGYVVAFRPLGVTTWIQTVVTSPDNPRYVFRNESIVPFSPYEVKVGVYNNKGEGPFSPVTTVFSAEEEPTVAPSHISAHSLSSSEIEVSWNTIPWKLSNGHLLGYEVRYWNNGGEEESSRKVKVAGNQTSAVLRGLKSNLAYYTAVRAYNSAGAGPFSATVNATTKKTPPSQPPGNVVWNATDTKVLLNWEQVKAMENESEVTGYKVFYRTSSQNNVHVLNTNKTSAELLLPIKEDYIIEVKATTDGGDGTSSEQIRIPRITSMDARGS
Chain of ectodomain of contactin 4 (CNTN4) fused to human IgG1 Fc or to FcYTS (Q69Z26 19-1000): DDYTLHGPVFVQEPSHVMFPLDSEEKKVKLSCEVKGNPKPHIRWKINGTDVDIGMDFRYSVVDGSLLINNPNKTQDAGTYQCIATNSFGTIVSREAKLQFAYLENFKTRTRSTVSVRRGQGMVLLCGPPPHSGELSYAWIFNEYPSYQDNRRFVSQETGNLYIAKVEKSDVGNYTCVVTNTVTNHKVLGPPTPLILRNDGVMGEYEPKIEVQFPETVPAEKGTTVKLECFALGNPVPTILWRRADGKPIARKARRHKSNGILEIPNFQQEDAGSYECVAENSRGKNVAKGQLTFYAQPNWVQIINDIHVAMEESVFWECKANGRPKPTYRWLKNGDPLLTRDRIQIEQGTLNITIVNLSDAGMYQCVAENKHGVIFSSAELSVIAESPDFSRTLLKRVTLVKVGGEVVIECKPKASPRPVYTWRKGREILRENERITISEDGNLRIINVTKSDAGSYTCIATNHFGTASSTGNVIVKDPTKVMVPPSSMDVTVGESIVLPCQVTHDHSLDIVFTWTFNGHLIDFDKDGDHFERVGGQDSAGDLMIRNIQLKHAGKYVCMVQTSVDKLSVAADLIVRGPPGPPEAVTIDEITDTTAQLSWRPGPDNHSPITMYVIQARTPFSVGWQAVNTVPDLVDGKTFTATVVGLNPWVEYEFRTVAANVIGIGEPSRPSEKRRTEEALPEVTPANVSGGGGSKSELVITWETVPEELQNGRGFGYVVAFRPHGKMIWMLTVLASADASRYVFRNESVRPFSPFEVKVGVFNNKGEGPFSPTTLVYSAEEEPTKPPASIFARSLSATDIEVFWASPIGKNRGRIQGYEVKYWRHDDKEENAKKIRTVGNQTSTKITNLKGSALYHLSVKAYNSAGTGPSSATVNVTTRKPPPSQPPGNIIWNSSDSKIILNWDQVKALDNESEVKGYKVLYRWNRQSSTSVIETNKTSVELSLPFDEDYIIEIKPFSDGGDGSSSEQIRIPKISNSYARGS

Substance: FN1-FN3 region of human CNTN5 (from UniProt O94779 19-1072) (domain or fragment)
Kd [1]: 10.9 µM | Kd [2]: 38.6 µM | Kd [3]: 9.8 µM | koff [3]: 0.17 s⁻¹ | kon [3]: 17700 M⁻¹ s⁻¹ | Kd [4]: 36.6 µM | koff [4]: 0.37 s⁻¹ | kon [4]: 9440 M⁻¹ s⁻¹

Substance: E1 domain of zebrafish APPb (domain or fragment)
Kd [5]: 0.4 µM | Kd [7]: 110 nM | koff [7]: 0.03 s⁻¹ | kon [7]: 170000 M⁻¹ s⁻¹ | Kd [8]: 401 nM

Substance: FN1-FN3 region of chicken CNTN4 T751A, V752A (domain or fragment)
Kd [10]: 20.9 µM | Kd [11]: 441 µM | koff [11]: 0.38 s⁻¹ | kon [11]: 10300 M⁻¹ s⁻¹

Substance: FN1-FN3 region of human CNTN4 (from UniProt Q8IWV2 19-1000) (domain or fragment)
Kd [1]: 1.5 µM | Kd [14]: 8 µM | Kd [3]: 0.4 µM | koff [3]: 0.03 s⁻¹ | kon [3]: 64500 M⁻¹ s⁻¹ | Kd [4]: 4.8 µM | koff [4]: 0.2 s⁻¹ | kon [4]: 43000 M⁻¹ s⁻¹ | Kd [15]: 18.7 µM | koff [15]: 0.33 s⁻¹ | kon [15]: 19200 M⁻¹ s⁻¹

Substance: FN1-FN3 region of human CNTN3 (from UniProt Q9P232 20-1002) (domain or fragment)
Kd [1]: 9.1 µM | Kd [14]: 63.3 µM | Kd [3]: 4.5 µM | koff [3]: 0.1 s⁻¹ | kon [3]: 2190 M⁻¹ s⁻¹ | Kd [15]: 403 µM | koff [15]: 0.79 s⁻¹ | kon [15]: 2560 M⁻¹ s⁻¹

Substance: FN1-FN3 region of mouse CNTN3 (from UniProt Q07409 20-1002) (domain or fragment)
Kd [17]: 2900 nM | koff [17]: 0.15 s⁻¹ | kon [17]: 56200 M⁻¹ s⁻¹

Substance: FN1-FN3 region of zebrafish CNTN5 (domain or fragment)
Kd [18]: 64.4 µM | koff [18]: 0.59 s⁻¹ | kon [18]: 9560 M⁻¹ s⁻¹

Continued, values first:

Kd [5]: 21.4 µM
Substance: E1 domain of zebrafish APLP2 (domain or fragment)

Kd [6]: 26.8 µM
Substance: FN1–FN3 region of zebrafish CNTN5 (domain or fragment)

fold reduction in affinity against wild-type chicken CNTN4 [9]: 4 fold
Substance: FN1–FN3 region of chicken CNTN4, T751A and V752A (domain or fragment)

Kd [12]: 26.6 µM | koff [12]: 0.33 s⁻¹ | kon [12]: 21600 M⁻¹ s⁻¹ | Kd [11]: 8.2 µM | koff [11]: 0.19 s⁻¹ | kon [11]: 33900 M⁻¹ s⁻¹
Substance: FN1-FN3 region of chicken CNTN4 (domain or fragment)

Kd [10]: 46.8 µM | Kd [11]: 182 µM | koff [11]: 0.9 s⁻¹ | kon [11]: 7250 M⁻¹ s⁻¹
Substance: FN1-FN3 region of chicken CNTN3 (domain or fragment)

luminescent signal [13]: 1.56e+06 | luminescent signal divided by the signal of APP-FcYTS with Fc only [13]: 848
Substance: ectodomain of contactin 4 (CNTN4) fused to human IgG1 Fc or to FcYTS (from UniProt Q69Z26 19-1000) (Fc fusion)

Kd [10]: 115 µM | Kd [11]: 330 µM | koff [11]: 0.59 s⁻¹ | kon [11]: 5450 M⁻¹ s⁻¹
Substance: FN1-FN3 region of chicken CNTN4 Y781A, E786A (domain or fragment)

Kd [16]: 28.2 µM | Kd [9]: 5.4 µM
Substance: FN1–FN3 region of chicken CNTN4 (domain or fragment)

Kd [9]: 115 µM
Substance: FN1–FN3 region of chicken CNTN4, Y781A and E786A (domain or fragment)
